In patent US10590440B2, “Process for producing a fermentation product from a lignocellulose-containing material” (CysBio ApS, priority 2014, dated 2020):

Test system: E. coli
Assay: Growth of E. coli with or without SULT1A1 in M9 with wheat straw biomass hydrolysate (Example 7, FIG. 9)
Assay type: cell-based, Escherichia coli
Details: 1 mM IPTG
Source text: Here, we examine pre-treated wheat straw biomass hydrolysate in growth medium for a biotechnological relevant organism, exemplified by E. coli. Specifically, we used strains carrying plasmids expressing SULT1A1 from rat (Rattus norvegicus) and SULT1E1 from chicken (Gallus gallus domesticus) (Example 1) cloned into the expression vector pETDuet-1, and cysDNCQ from E. coli cloned into expression vector pRSFDuet-1 (Example 2) as described previously.
Cells expressing no sulfotransferase or SULT1A1 from rat were grown in M9 media with 1 mM IPTG with or without inhibitors of growth. Biomass hydrolysate was prepared by mixing 100 g biomass hydrolysate with 200 g of water for 2 h at 37° C., followed by centrifugation and filtration through a 0.2 μL-filter.

B1: SULT1A1 Rattus norvegicus: aryl sulfotransferase SULT1A1 from Rattus norvegicus (SEQ ID NO: 1), native gene, heterologously expressed (protein, listed as Rattus norvegicus)
chain: MEFSRPPLVHVKGIPLIKYFAETIGPLQNFTAWPDDLLISTYPKSGTTWMSEILDMIYQGGKLEKCGRAPIYARVPFLEFKCPGVPSGLETLEETPAPRLLKTHLPLSLLPQSLLDQKVKVIYIARNAKDVVVSYYNFYNMAKLHPDPGTWDSFLENFMDGEVSYGSWYQHVKEWWELRHTHPVLYLFYEDIKENPKREIKKILEFLGRSLPEETVDSIVHHTSFKKMKENCMTNYTTIPTEIMDHNVSPFMRKGTTGDWKNTFTVAQNERFDAHYAKTMTDCDFKFRCEL
growth rate versus strain without sulfotransferase (M9 with 8% or 12% biomass hydrolysate): significantly higher | growth rate versus strain without sulfotransferase (M9 without supplements): no difference in growth rate
